Common to all, as to settings: protein: recombinant; single strand
Data set [1] addresses T1, YB-1 cold shock domain (CSD) (human, UniProt P67809 51-129). In words: EMSA; apparent Kd, protein concentration at 50% saturation; 7 pmol RNA in 10 ul; 10 mM Hepes-KOH pH 7.6, 100 mM KCl, 30 C, 15 min, 10 ul; 8% native PAGE in TBE, silver staining.
The target in data set [2] is T2, YB-1 (full-length) (human, UniProt P67809 1-324). The data set is described as above.
In data set [3] the target is T1, YB-1 cold shock domain (CSD). Nature of the data set: EMSA; apparent Kd, protein concentration at 50% saturation; 7 pmol DNA in 10 ul; 10 mM Hepes-KOH pH 7.6, 100 mM KCl, 30 C, 15 min, 10 ul; 8% native PAGE in TBE, silver staining. (Mobility shift assays separate free from complexed probe on a gel.)
The target of data set [4] is T2, YB-1 (full-length). Described as above.

T2 sequence (P67809 whole entry, the tested form may be a part): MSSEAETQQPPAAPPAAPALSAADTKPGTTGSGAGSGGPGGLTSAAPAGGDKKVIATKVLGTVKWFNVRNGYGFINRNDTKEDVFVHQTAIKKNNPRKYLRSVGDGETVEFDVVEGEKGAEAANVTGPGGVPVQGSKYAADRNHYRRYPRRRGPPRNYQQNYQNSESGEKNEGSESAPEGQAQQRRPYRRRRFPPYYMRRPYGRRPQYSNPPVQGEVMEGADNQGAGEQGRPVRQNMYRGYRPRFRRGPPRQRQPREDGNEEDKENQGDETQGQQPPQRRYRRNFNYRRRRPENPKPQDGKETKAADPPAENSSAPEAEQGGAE
T1 sequence (P67809 51-129): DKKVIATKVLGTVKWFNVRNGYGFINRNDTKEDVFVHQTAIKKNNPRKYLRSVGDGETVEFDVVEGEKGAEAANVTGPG

B1: G-rich RNA 20-mer (ssRNA)
RNA: AGGAUGGGUGAGUGAGGUAG
For the molecule B1, the results for the Kd (in data set [1]; with YB-1 (full-length) [2]) were 2500 nM and 300 nM, respectively.

B2: G-rich DNA 20-mer (ssDNA)
DNA: AGGATGGGTGAGTGAGGTAG
Consider B2, for which the values for the Kd (in data set [3]; in the data set with YB-1 (full-length) [4]) were 6000 nM and 600 nM, respectively.

Source of the values: PMC4493011, “The Cold Shock Domain of YB-1 Segregates RNA from DNA by Non-Bonded Interactions”.
